This is an account of results in patent US20240336927.

The series has as its system IgG SLE S6 (anti-BC autoantibody, polyclonal) (human). The series is described as follows: EMSA. The following applies: reactivity relative to BC200 RNA.

U4 snRNA returned a binding signal of under 5%.
